Patent US20190040138A1

Biological target: PD-1 antigen stably expressed on the surface of BB007 cells (UniProt Q15116)
Assay: flow cytometry on BB007 cells; control, printed under the column 0 nM

Sequence of PD-1 antigen stably expressed on the surface of BB007 cells (Q15116 25-288 limits assumed): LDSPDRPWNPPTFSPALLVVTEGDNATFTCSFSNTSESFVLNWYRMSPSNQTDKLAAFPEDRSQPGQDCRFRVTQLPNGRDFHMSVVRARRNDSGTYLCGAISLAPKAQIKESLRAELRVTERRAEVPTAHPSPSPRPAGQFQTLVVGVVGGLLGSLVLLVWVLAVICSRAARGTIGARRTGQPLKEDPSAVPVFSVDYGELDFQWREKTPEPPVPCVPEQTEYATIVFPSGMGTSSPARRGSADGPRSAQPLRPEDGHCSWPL

fluorescence intensity: 7.4
Substance: hIgG (antibody)
